# Test system: cytosolic tail of APP
# Assay: Yeast two-hybrid (Y2H) analysis of μ4 with the APP tail
# Type: binding
# Details: mutations at μ2-binding site; growth on -His plates, 30°C
# Source text: The cloning of the tail of APP (residues 649–695), full-length human μ4, and all the other yeast two-hybrid (Y2H) constructs, and the cloning of the C-terminal domain of μ4 for expression in E. coli was described previously. To generate a construct for mammalian expression, full-length human μ4 was obtained by PCR amplification and cloned into the EcoRI and SalI sites of pEGFP-N1 (BD BiosciencesClontech, Mountain View, CA) including a stop-codon before the GFP coding sequence. The cloning of APP-GFP carrying the double mutation F615P/D664A was described previously. Single amino acid substitutions were introduced using the QuikChange mutagenesis kit (Stratagene, La Jolla, CA). Y2H assays were performed as previously described. A set of pCI-neo (Promega) constructs encoding hemagglutinin (HA)-epitope tagged wild-type or mutants of human μ4 was a generous gift of J. Bonifacino and R. Mattera (Cell Biology and Metabolism Program, NICHD, NIH). The nucleotide sequences of all recombinant constructs were confirmed by dideoxy sequencing.
# Figure 1 Yeast two-hybrid analysis of the interaction of μ4 with the cytosolic tail of APP. (A) Superposition of the surface and ribbon representations of human wild-type μ4 C-terminal domain (pdb entry 3L81). The insets show an enlargement of the μ4-binding site and the putative μ2-binding site with residues chosen for the yeast two-hybrid (Y2H) analysis. The APP peptide (TYKFFEQ; stick model) bound to the μ4-binding site is in yellow, and the EGFR peptide (FYRALM; stick model; pdb entry 1BW8) superposed to the putative μ2-binding site is in magenta. (B) Sequence alignment of the C-terminal domain of the μ subunits of known crystal structure depicting critical residues at the corresponding μ2- and μ4-binding sites. Disordered loops are in yellow letters, and arrows and cylinders represent β-strands and α-helices, respectively. M.m., Mus musculus; R.n., Rattus norvegicus; H.s., Homo sapiens. (C) and (D) Yeast were co-transformed with plasmids encoding Gal4bd fused to the cytosolic tail of the amyloid precursor protein (APP) indicated on the left, and Gal4ad fused to wild-type or mutant μ4 constructs indicated on top of each panel. (C) Y2H analysis of μ4 with mutations on the YKFFE binding site (μ4-binding site). (D) Y2H analysis of μ4 with mutations on a putative YXXØ binding site (μ2-binding site). Mouse p53 fused to Gal4bd and SV40 large T antigen (T Ag) fused to Gal4ad were used as controls. Co-transformed cells were spotted onto His-deficient (-His) or His-containing (+His) plates and incubated at 30°C. Growth is indicative of interactions. Some mutations on either of the two sites affect the interaction of μ4 with the cytosolic tail of APP.
row,Molecule,effect of mutation on interaction of the APP tail with μ4 (Y2H)
1,"F188A: μ4 mutant, μ2-binding site, Y2H construct (protein, left off: Gal4 activation domain, end not stated, kept) MISQFFILSSKGDPLIYKDFRGDSGGRDVAELFYRKLTGLPGDESPVVMHHHGRHFIHIRHSGLYLVVTTSENVSPFSLLELLSRLATLLGDYCGSLGEGTISRNVALVYELLDEVLDYGYVQTTSTEMLRNFIQTEAVVSKPFSLFDLSSVGLFGAETQQSKVAPSSAASRPVLSSRSDQSQKNEVALDVVERLSVLIASNGSLLKVDVQGEIRLKSFLPSGSEMRIGLTEEFCVGKSELRGYGPGIRVDEVSFHSSVNLDEFESHRILRLQPPQGELTVMRYQLSDDLPSPLPFRLFPSVQWDRGSGRLQVYLKLRCDLLSKSQALNVRLHLPLPRGVVSLSQELSSPEQKAELAEGALRWDLPRVQGGSQLSGLFQMDVPGPPGPPSHGLSTSASPLGLGPASLSFELPRHTCSGLQVRFLRLAFRPCGNANPHKWVRHLSHSDAYVIRI",little or no effect
2,"D190S: μ4 mutant, μ2-binding site, Y2H construct (protein, left off: Gal4 activation domain, end not stated, kept) MISQFFILSSKGDPLIYKDFRGDSGGRDVAELFYRKLTGLPGDESPVVMHHHGRHFIHIRHSGLYLVVTTSENVSPFSLLELLSRLATLLGDYCGSLGEGTISRNVALVYELLDEVLDYGYVQTTSTEMLRNFIQTEAVVSKPFSLFDLSSVGLFGAETQQSKVAPSSAASRPVLSSRSDQSQKNEVFLSVVERLSVLIASNGSLLKVDVQGEIRLKSFLPSGSEMRIGLTEEFCVGKSELRGYGPGIRVDEVSFHSSVNLDEFESHRILRLQPPQGELTVMRYQLSDDLPSPLPFRLFPSVQWDRGSGRLQVYLKLRCDLLSKSQALNVRLHLPLPRGVVSLSQELSSPEQKAELAEGALRWDLPRVQGGSQLSGLFQMDVPGPPGPPSHGLSTSASPLGLGPASLSFELPRHTCSGLQVRFLRLAFRPCGNANPHKWVRHLSHSDAYVIRI",little or no effect
3,"K217A: μ4 mutant, μ2-binding site, Y2H construct (protein, left off: Gal4 activation domain, end not stated, kept) MISQFFILSSKGDPLIYKDFRGDSGGRDVAELFYRKLTGLPGDESPVVMHHHGRHFIHIRHSGLYLVVTTSENVSPFSLLELLSRLATLLGDYCGSLGEGTISRNVALVYELLDEVLDYGYVQTTSTEMLRNFIQTEAVVSKPFSLFDLSSVGLFGAETQQSKVAPSSAASRPVLSSRSDQSQKNEVFLDVVERLSVLIASNGSLLKVDVQGEIRLASFLPSGSEMRIGLTEEFCVGKSELRGYGPGIRVDEVSFHSSVNLDEFESHRILRLQPPQGELTVMRYQLSDDLPSPLPFRLFPSVQWDRGSGRLQVYLKLRCDLLSKSQALNVRLHLPLPRGVVSLSQELSSPEQKAELAEGALRWDLPRVQGGSQLSGLFQMDVPGPPGPPSHGLSTSASPLGLGPASLSFELPRHTCSGLQVRFLRLAFRPCGNANPHKWVRHLSHSDAYVIRI",little or no effect

# Same assay, conditions: mutations at μ4-binding site; growth on -His plates, 30°C
row,Molecule,effect of mutation on binding to the APP YKFFE signal (Y2H)
1,"S254K: μ4 mutant, μ4-binding site, Y2H construct (protein, left off: Gal4 activation domain, end not stated, kept) MISQFFILSSKGDPLIYKDFRGDSGGRDVAELFYRKLTGLPGDESPVVMHHHGRHFIHIRHSGLYLVVTTSENVSPFSLLELLSRLATLLGDYCGSLGEGTISRNVALVYELLDEVLDYGYVQTTSTEMLRNFIQTEAVVSKPFSLFDLSSVGLFGAETQQSKVAPSSAASRPVLSSRSDQSQKNEVFLDVVERLSVLIASNGSLLKVDVQGEIRLKSFLPSGSEMRIGLTEEFCVGKSELRGYGPGIRVDEVKFHSSVNLDEFESHRILRLQPPQGELTVMRYQLSDDLPSPLPFRLFPSVQWDRGSGRLQVYLKLRCDLLSKSQALNVRLHLPLPRGVVSLSQELSSPEQKAELAEGALRWDLPRVQGGSQLSGLFQMDVPGPPGPPSHGLSTSASPLGLGPASLSFELPRHTCSGLQVRFLRLAFRPCGNANPHKWVRHLSHSDAYVIRI",little or no effects
2,"S257Q: μ4 mutant, μ4-binding site, Y2H construct (protein, left off: Gal4 activation domain, end not stated, kept) MISQFFILSSKGDPLIYKDFRGDSGGRDVAELFYRKLTGLPGDESPVVMHHHGRHFIHIRHSGLYLVVTTSENVSPFSLLELLSRLATLLGDYCGSLGEGTISRNVALVYELLDEVLDYGYVQTTSTEMLRNFIQTEAVVSKPFSLFDLSSVGLFGAETQQSKVAPSSAASRPVLSSRSDQSQKNEVFLDVVERLSVLIASNGSLLKVDVQGEIRLKSFLPSGSEMRIGLTEEFCVGKSELRGYGPGIRVDEVSFHQSVNLDEFESHRILRLQPPQGELTVMRYQLSDDLPSPLPFRLFPSVQWDRGSGRLQVYLKLRCDLLSKSQALNVRLHLPLPRGVVSLSQELSSPEQKAELAEGALRWDLPRVQGGSQLSGLFQMDVPGPPGPPSHGLSTSASPLGLGPASLSFELPRHTCSGLQVRFLRLAFRPCGNANPHKWVRHLSHSDAYVIRI",little or no effects
3,"T280A: μ4 mutant, μ4-binding site, Y2H construct (protein, left off: Gal4 activation domain, end not stated, kept) MISQFFILSSKGDPLIYKDFRGDSGGRDVAELFYRKLTGLPGDESPVVMHHHGRHFIHIRHSGLYLVVTTSENVSPFSLLELLSRLATLLGDYCGSLGEGTISRNVALVYELLDEVLDYGYVQTTSTEMLRNFIQTEAVVSKPFSLFDLSSVGLFGAETQQSKVAPSSAASRPVLSSRSDQSQKNEVFLDVVERLSVLIASNGSLLKVDVQGEIRLKSFLPSGSEMRIGLTEEFCVGKSELRGYGPGIRVDEVSFHSSVNLDEFESHRILRLQPPQGELAVMRYQLSDDLPSPLPFRLFPSVQWDRGSGRLQVYLKLRCDLLSKSQALNVRLHLPLPRGVVSLSQELSSPEQKAELAEGALRWDLPRVQGGSQLSGLFQMDVPGPPGPPSHGLSTSASPLGLGPASLSFELPRHTCSGLQVRFLRLAFRPCGNANPHKWVRHLSHSDAYVIRI",little or no effects
4,"T280R: μ4 mutant, μ4-binding site, Y2H construct (protein, left off: Gal4 activation domain, end not stated, kept) MISQFFILSSKGDPLIYKDFRGDSGGRDVAELFYRKLTGLPGDESPVVMHHHGRHFIHIRHSGLYLVVTTSENVSPFSLLELLSRLATLLGDYCGSLGEGTISRNVALVYELLDEVLDYGYVQTTSTEMLRNFIQTEAVVSKPFSLFDLSSVGLFGAETQQSKVAPSSAASRPVLSSRSDQSQKNEVFLDVVERLSVLIASNGSLLKVDVQGEIRLKSFLPSGSEMRIGLTEEFCVGKSELRGYGPGIRVDEVSFHSSVNLDEFESHRILRLQPPQGELRVMRYQLSDDLPSPLPFRLFPSVQWDRGSGRLQVYLKLRCDLLSKSQALNVRLHLPLPRGVVSLSQELSSPEQKAELAEGALRWDLPRVQGGSQLSGLFQMDVPGPPGPPSHGLSTSASPLGLGPASLSFELPRHTCSGLQVRFLRLAFRPCGNANPHKWVRHLSHSDAYVIRI",little or no effects

# From article PMC3912200, “Structural and Functional Characterization of Cargo-Binding Sites on the μ4-Subunit of Adaptor Protein Complex 4” (PLoS ONE, 2014)
